Assay results published in the supplement of paper PMC9112550, “Optimization of the antimicrobial peptide Bac7 by deep mutational scanning” (BMC Biology, 2022).

System: Escherichia coli TOP10
Assay: shrunken log2 fold change of peptide-encoding DNA abundance (4.5 h post-induction vs induction); higher = less antimicrobial activity (less host growth inhibition)
Details: time post-induction: 4.5 h; library: site-saturation at positions 5, 18, 19, 20
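Further: peptides expressed intracellularly from a pBAD plasmid library in pooled LB shake-flask culture, induced with 0.3% L-arabinose, DNA abundance read by NGS, three biological replicates, DESeq2 with apeglm shrinkage.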

Row | Sequence | shrunken log2 fold change
1 | RRIRWRPPRLPRPRPRPFVVPRP | -0.242
2 | RRIRWRPPRLPRPRPRPFYTPRP | -0.575
3 | RRIRWRPPRLPRPRPRPGDQPRP | 0.175
4 | RRIRWRPPRLPRPRPRPGDRPRP | 0.468
5 | RRIRWRPPRLPRPRPRPGEDPRP | 0.381
6 | RRIRWRPPRLPRPRPRPGEKPRP | 0.489
7 | RRIRWRPPRLPRPRPRPGFNPRP | 0.00388
8 | RRIRWRPPRLPRPRPRPGFSPRP | 0.138
9 | RRIRWRPPRLPRPRPRPGGVPRP | 0.427
10 | RRIRWRPPRLPRPRPRPGHDPRP | 0.043
11 | RRIRWRPPRLPRPRPRPGHNPRP | 0.31
12 | RRIRWRPPRLPRPRPRPGHPPRP | 0.0932
13 | RRIRWRPPRLPRPRPRPGKLPRP | -0.368
14 | RRIRWRPPRLPRPRPRPGKSPRP | 0.0772
15 | RRIRWRPPRLPRPRPRPGLIPRP | 0.336
16 | RRIRWRPPRLPRPRPRPGMPPRP | 0.294
17 | RRIRWRPPRLPRPRPRPGMTPRP | 0.167
18 | RRIRWRPPRLPRPRPRPGMVPRP | 0.628
19 | RRIRWRPPRLPRPRPRPGPPPRP | 0.671
20 | RRIRWRPPRLPRPRPRPGQYPRP | 0.0716
21 | RRIRWRPPRLPRPRPRPGTDPRP | 0.216
22 | RRIRWRPPRLPRPRPRPGWKPRP | 0.0668
23 | RRIRWRPPRLPRPRPRPGWWPRP | 0.336
24 | RRIRWRPPRLPRPRPRPHCMPRP | 0.0179
25 | RRIRWRPPRLPRPRPRPHDMPRP | -0.202

Row | Sequence | shrunken log2 fold change
26 | RRIRWRPPRLPRPRPRPHDYPRP | 0.0166
27 | RRIRWRPPRLPRPRPRPHEEPRP | 0.0119
28 | RRIRWRPPRLPRPRPRPHEYPRP | -0.147
29 | RRIRWRPPRLPRPRPRPHFQPRP | -0.183
30 | RRIRWRPPRLPRPRPRPHGLPRP | 0.0735
31 | RRIRWRPPRLPRPRPRPHGSPRP | 0.173
32 | RRIRWRPPRLPRPRPRPHGWPRP | 0.213
33 | RRIRWRPPRLPRPRPRPHHWPRP | 0.13
34 | RRIRWRPPRLPRPRPRPHKIPRP | -0.0312
35 | RRIRWRPPRLPRPRPRPHLFPRP | 0.0795
36 | RRIRWRPPRLPRPRPRPHMCPRP | -0.00659
37 | RRIRWRPPRLPRPRPRPHNCPRP | -0.349
38 | RRIRWRPPRLPRPRPRPHPLPRP | -0.0381
39 | RRIRWRPPRLPRPRPRPHPNPRP | -0.0793
40 | RRIRWRPPRLPRPRPRPHSKPRP | 1.84
41 | RRIRWRPPRLPRPRPRPHSYPRP | -0.0789
42 | RRIRWRPPRLPRPRPRPHVDPRP | -0.127
43 | RRIRWRPPRLPRPRPRPHVMPRP | -0.254
44 | RRIRWRPPRLPRPRPRPHVYPRP | -0.132
45 | RRIRWRPPRLPRPRPRPHWNPRP | -0.676
46 | RRIRWRPPRLPRPRPRPHYCPRP | -0.269
47 | RRIRWRPPRLPRPRPRPHYHPRP | -0.506
48 | RRIRWRPPRLPRPRPRPHYYPRP | -0.581
49 | RRIRWRPPRLPRPRPRPICIPRP | -0.191
50 | RRIRWRPPRLPRPRPRPIDFPRP | -3.4e-05

Row | Sequence | shrunken log2 fold change
51 | RRIRWRPPRLPRPRPRPIFIPRP | -0.592
52 | RRIRWRPPRLPRPRPRPIFNPRP | -0.217
53 | RRIRWRPPRLPRPRPRPIGAPRP | 0.0619
54 | RRIRWRPPRLPRPRPRPIHDPRP | -0.118
55 | RRIRWRPPRLPRPRPRPIHWPRP | 0.202
56 | RRIRWRPPRLPRPRPRPIIMPRP | -0.241
57 | RRIRWRPPRLPRPRPRPIKGPRP | -0.197
58 | RRIRWRPPRLPRPRPRPIKPPRP | -0.0158
59 | RRIRWRPPRLPRPRPRPIKRPRP | 0.21
60 | RRIRWRPPRLPRPRPRPIKVPRP | -0.146
61 | RRIRWRPPRLPRPRPRPINGPRP | -0.0517
62 | RRIRWRPPRLPRPRPRPINIPRP | -1.2
63 | RRIRWRPPRLPRPRPRPIPCPRP | -0.0198
64 | RRIRWRPPRLPRPRPRPIPWPRP | -0.0329
65 | RRIRWRPPRLPRPRPRPIQLPRP | -0.304
66 | RRIRWRPPRLPRPRPRPISNPRP | -0.0292
67 | RRIRWRPPRLPRPRPRPITEPRP | -0.355
68 | RRIRWRPPRLPRPRPRPITPPRP | 0.145
69 | RRIRWRPPRLPRPRPRPIVEPRP | 0.127
70 | RRIRWRPPRLPRPRPRPIYVPRP | -0.0477
71 | RRIRWRPPRLPRPRPRPKCTPRP | 1.21
72 | RRIRWRPPRLPRPRPRPKCWPRP | 0.467
73 | RRIRWRPPRLPRPRPRPKDGPRP | 0.00598
74 | RRIRWRPPRLPRPRPRPKEGPRP | 0.538
75 | RRIRWRPPRLPRPRPRPKGAPRP | 0.732

Row | Sequence | shrunken log2 fold change
76 | RRIRWRPPRLPRPRPRPKGEPRP | 0.74
77 | RRIRWRPPRLPRPRPRPKGHPRP | 0.108
78 | RRIRWRPPRLPRPRPRPKHEPRP | 0.288
79 | RRIRWRPPRLPRPRPRPKHNPRP | -0.152
80 | RRIRWRPPRLPRPRPRPKHSPRP | 0.0898
81 | RRIRWRPPRLPRPRPRPKIDPRP | 0.0747
82 | RRIRWRPPRLPRPRPRPKIHPRP | -0.23
83 | RRIRWRPPRLPRPRPRPKIRPRP | 0.00361
84 | RRIRWRPPRLPRPRPRPKKVPRP | 0.0465
85 | RRIRWRPPRLPRPRPRPKLFPRP | 0.589
86 | RRIRWRPPRLPRPRPRPKLQPRP | 0.182
87 | RRIRWRPPRLPRPRPRPKMDPRP | 0.135
88 | RRIRWRPPRLPRPRPRPKMMPRP | -0.106
89 | RRIRWRPPRLPRPRPRPKPCPRP | 0.229
90 | RRIRWRPPRLPRPRPRPKPYPRP | 3.05
91 | RRIRWRPPRLPRPRPRPKQIPRP | 0.143
92 | RRIRWRPPRLPRPRPRPKQQPRP | -0.133
93 | RRIRWRPPRLPRPRPRPKRDPRP | 0.696
94 | RRIRWRPPRLPRPRPRPKRWPRP | 0.441
95 | RRIRWRPPRLPRPRPRPKSCPRP | 0.178
96 | RRIRWRPPRLPRPRPRPKSEPRP | 0.502
97 | RRIRWRPPRLPRPRPRPKWFPRP | 0.257
98 | RRIRWRPPRLPRPRPRPKWPPRP | 0.477
99 | RRIRWRPPRLPRPRPRPKYGPRP | 0.085
100 | RRIRWRPPRLPRPRPRPLCAPRP | 0.776

Row | Sequence | shrunken log2 fold change
101 | RRIRWRPPRLPRPRPRPLCRPRP | 0.17
102 | RRIRWRPPRLPRPRPRPLCTPRP | 0.106
103 | RRIRWRPPRLPRPRPRPLDFPRP | 0.0518
104 | RRIRWRPPRLPRPRPRPLDWPRP | 0.355
105 | RRIRWRPPRLPRPRPRPLEEPRP | 1.06
106 | RRIRWRPPRLPRPRPRPLESPRP | 0.176
107 | RRIRWRPPRLPRPRPRPLFNPRP | -0.711
108 | RRIRWRPPRLPRPRPRPLFQPRP | -0.0127
109 | RRIRWRPPRLPRPRPRPLGDPRP | 0.598
110 | RRIRWRPPRLPRPRPRPLHYPRP | -0.369
111 | RRIRWRPPRLPRPRPRPLIAPRP | 0.273
112 | RRIRWRPPRLPRPRPRPLIIPRP | -0.269
113 | RRIRWRPPRLPRPRPRPLKRPRP | 0.612
114 | RRIRWRPPRLPRPRPRPLKWPRP | 0.488
115 | RRIRWRPPRLPRPRPRPLMCPRP | 0.117
116 | RRIRWRPPRLPRPRPRPLMNPRP | -0.0906
117 | RRIRWRPPRLPRPRPRPLMPPRP | 0.486
118 | RRIRWRPPRLPRPRPRPLNCPRP | -0.0452
119 | RRIRWRPPRLPRPRPRPLNMPRP | -0.832
120 | RRIRWRPPRLPRPRPRPLQSPRP | 0.153
121 | RRIRWRPPRLPRPRPRPLRCPRP | 0.242
122 | RRIRWRPPRLPRPRPRPLSFPRP | -0.0327
123 | RRIRWRPPRLPRPRPRPLSHPRP | 0.000856
124 | RRIRWRPPRLPRPRPRPLSIPRP | -0.0528
125 | RRIRWRPPRLPRPRPRPLYAPRP | 0.188

Row | Sequence | shrunken log2 fold change
126 | RRIRWRPPRLPRPRPRPLYMPRP | -0.684
127 | RRIRWRPPRLPRPRPRPMADPRP | 0.0452
128 | RRIRWRPPRLPRPRPRPMAQPRP | 0.218
129 | RRIRWRPPRLPRPRPRPMCCPRP | 0.181
130 | RRIRWRPPRLPRPRPRPMCNPRP | -0.181
131 | RRIRWRPPRLPRPRPRPMEVPRP | -0.00973
132 | RRIRWRPPRLPRPRPRPMGHPRP | -0.116
133 | RRIRWRPPRLPRPRPRPMHTPRP | 0.643
134 | RRIRWRPPRLPRPRPRPMHWPRP | 0.194
135 | RRIRWRPPRLPRPRPRPMIRPRP | -0.348
136 | RRIRWRPPRLPRPRPRPMKSPRP | 0.252
137 | RRIRWRPPRLPRPRPRPMLHPRP | -0.17
138 | RRIRWRPPRLPRPRPRPMLLPRP | 0.259
139 | RRIRWRPPRLPRPRPRPMLQPRP | 0.544
140 | RRIRWRPPRLPRPRPRPMNFPRP | -0.0285
141 | RRIRWRPPRLPRPRPRPMNGPRP | -0.131
142 | RRIRWRPPRLPRPRPRPMNLPRP | -0.063
143 | RRIRWRPPRLPRPRPRPMPSPRP | -0.116
144 | RRIRWRPPRLPRPRPRPMQAPRP | 1.83
145 | RRIRWRPPRLPRPRPRPMQWPRP | 0.379
146 | RRIRWRPPRLPRPRPRPMTGPRP | 0.019
147 | RRIRWRPPRLPRPRPRPMVHPRP | 0.0275
148 | RRIRWRPPRLPRPRPRPMVMPRP | -0.0614
149 | RRIRWRPPRLPRPRPRPMYQPRP | -0.0254
150 | RRIRWRPPRLPRPRPRPNCCPRP | -0.16
